B1: PTPRD (parent)
chain: FICQATGDPRPKIVWNKKGKKVSN

Variants of: B1
Experiment: protein stability index of a GFP-peptide fusion (GPS, HEK-293T) (PSI 1-6); higher = more stable
Settings: c terminus: a fixed tail appended
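Further: lentivirally expressed fusions sorted by FACS into six bins by GFP to DsRed ratio, PSI derived from sequencing read proportions per bin multiplied by bin number.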

| Variant | protein stability index |
| --- | --- |
| FICQATGDPRVKIVWNKKGKKVSN [P11V] | 1.18 |
| FICQATGDPREKIVWNKKGKKVSN [P11E] | 2.88 |
| FICQATGDPRNKIVWNKKGKKVSN [P11N] | 1.87 |
| FICQATGDPRTKIVWNKKGKKVSN [P11T] | 2.07 |
| FICQATGDPRCKIVWNKKGKKVSN [P11C] | 1.32 |
| FICQATGDPRDKIVWNKKGKKVSN [P11D] | 2.11 |
| FICQATGDPRPKIVLNKKGKKVSN [W15L] | 2.16 |
| FICQATGDPRPKIVRNKKGKKVSN [W15R] | 2.6 |
| FICQATGDPRPKIVHNKKGKKVSN [W15H] | 2.15 |
| FICQATGDPRPKIVENKKGKKVSN [W15E] | 2.67 |
| FICQATGDPRPKIVTNKKGKKVSN [W15T] | 2.85 |
| FICQATGDPRPKIVQNKKGKKVSN [W15Q] | 2.73 |
| FICQATGDPRPKIVSNKKGKKVSN [W15S] | 2.7 |
| FICQATGDPRPKIVNNKKGKKVSN [W15N] | 2.53 |
| FICQATGDPRPKIVINKKGKKVSN [W15I] | 2.26 |
| FICQATGDPRPKIVANKKGKKVSN [W15A] | 2.48 |
| FICQATGDPRPKIVFNKKGKKVSN [W15F] | 2.5 |
| FICQATGDPRPKIVKNKKGKKVSN [W15K] | 2.12 |
| FICQATGDPRPKIVMNKKGKKVSN [W15M] | 2.9 |
| FICQATGDPRPKIVPNKKGKKVSN [W15P] | 2.56 |
| FICQATGDPRPKIVCNKKGKKVSN [W15C] | 2.57 |
| FICQATGDPRPKIVVNKKGKKVSN [W15V] | 2.76 |
| FICQATGDPRPKIVDNKKGKKVSN [W15D] | 2.73 |
| FICQATGDPRPKIVYNKKGKKVSN [W15Y] | 2.25 |

| Variant | protein stability index |
| --- | --- |
| FICQATGDPRPKIVGNKKGKKVSN [W15G] | 2.26 |
| FICQATGDSRPKIVWNKKGKKVSN [P9S] | 2 |
| FICQATGDTRPKIVWNKKGKKVSN [P9T] | 1.88 |
| FICQATGDIRPKIVWNKKGKKVSN [P9I] | 2.21 |
| FICQATGDVRPKIVWNKKGKKVSN [P9V] | 2.27 |
| FICQATGDKRPKIVWNKKGKKVSN [P9K] | 1.54 |
| FICQATGDHRPKIVWNKKGKKVSN [P9H] | 2.29 |
| FICQATGDNRPKIVWNKKGKKVSN [P9N] | 2.31 |
| FICQATGDWRPKIVWNKKGKKVSN [P9W] | 1.53 |
| FICQATGDYRPKIVWNKKGKKVSN [P9Y] | 1.53 |
| FICQATGDMRPKIVWNKKGKKVSN [P9M] | 2.36 |
| FICQATGDGRPKIVWNKKGKKVSN [P9G] | 1.4 |
| FICQATGDLRPKIVWNKKGKKVSN [P9L] | 2.49 |
| FICQATGDQRPKIVWNKKGKKVSN [P9Q] | 1.83 |
| FICQATGDPRPKWVWNKKGKKVSN [I13W] | 1.87 |
| FICQATGDPRPKRVWNKKGKKVSN [I13R] | 2.46 |
| FICQATGDPRPKQVWNKKGKKVSN [I13Q] | 2.02 |
| FICQATGDPRPKSVWNKKGKKVSN [I13S] | 1.52 |
| FICQATGDPRPKVVWNKKGKKVSN [I13V] | 2.97 |
| FICQATGDPRPKHVWNKKGKKVSN [I13H] | 1.74 |
| FICQATGDPRPKEVWNKKGKKVSN [I13E] | 2.1 |
| FICQATGDPRPKAVWNKKGKKVSN [I13A] | 1.83 |
| FICQATGDPRPKMVWNKKGKKVSN [I13M] | 1.51 |
| FICQATGDPRPKGVWNKKGKKVSN [I13G] | 2.6 |

| Variant | protein stability index |
| --- | --- |
| FICQATGDPRPKKVWNKKGKKVSN [I13K] | 1.74 |
| FICQATGDPRPKLVWNKKGKKVSN [I13L] | 1.45 |
| FICQATGDPRPKPVWNKKGKKVSN [I13P] | 1.75 |
| FICQATGDPRPKNVWNKKGKKVSN [I13N] | 1.88 |
| FICQATGDPRPKYVWNKKGKKVSN [I13Y] | 1.86 |
| FICQATGDPRPKFVWNKKGKKVSN [I13F] | 1.62 |
| FICQATGDPRPKTVWNKKGKKVSN [I13T] | 1.73 |
| FICQATGDPRPKCVWNKKGKKVSN [I13C] | 1.99 |
| FICQATGDPRPKIVWNKWGKKVSN [K18W] | 2.01 |
| FICQATGDPRPKIVWNKMGKKVSN [K18M] | 1.46 |
| FICQATGDPRPKIVWNKYGKKVSN [K18Y] | 1.94 |
| FICQATGDPRPKIVWNKPGKKVSN [K18P] | 1.97 |
| FICQATGDPRPKIVWNKIGKKVSN [K18I] | 1.24 |
| FICQATGDPRPKIVWNKVGKKVSN [K18V] | 1.45 |
| FICQATGDPRPKIVWNKRGKKVSN [K18R] | 2.2 |
| FICQATGDPRPKIVWNKSGKKVSN [K18S] | 1.61 |
| FICQATGDPRPKIVWNKNGKKVSN [K18N] | 1.98 |
| FICQATGDPRPKIVWNKAGKKVSN [K18A] | 1.93 |
| FICQATGDPRPKIVWNKFGKKVSN [K18F] | 1.38 |
| FICQATGDPRPKIVWNKTGKKVSN [K18T] | 1.51 |
| FICQATGDPRPKIVWNKEGKKVSN [K18E] | 2.41 |
| FICQATGDPRPKIVWNKDGKKVSN [K18D] | 1.95 |
| FICQATGDPRPKIVWNKQGKKVSN [K18Q] | 1.74 |
| FICQATGDPRPKIVWNKLGKKVSN [K18L] | 1.67 |

| Variant | protein stability index |
| --- | --- |
| FICQATGDPRPKIVWNKHGKKVSN [K18H] | 2.35 |
| FICQATGDPRPKIVWNKGGKKVSN [K18G] | 2.04 |
| FICQATGDPRPKIVWNKCGKKVSN [K18C] | 1.72 |
| FICQATGDPRPKIVWNVKGKKVSN [K17V] | 1.9 |
| FICQATGDPRPKIVWNQKGKKVSN [K17Q] | 1.84 |
| FICQATGDPRPKIVWNPKGKKVSN [K17P] | 2.81 |
| FICQATGDPRPKIVWNGKGKKVSN [K17G] | 1.77 |
| FICQATGDPRPKIVWNHKGKKVSN [K17H] | 1.96 |
| FICQATGDPRPKIVWNWKGKKVSN [K17W] | 2.78 |
| FICQATGDPRPKIVWNCKGKKVSN [K17C] | 1.92 |
| FICQATGDPRPKIVWNDKGKKVSN [K17D] | 1.74 |
| FICQATGDPRPKIVWNRKGKKVSN [K17R] | 2.21 |
| FICQATGDPRPKIVWNFKGKKVSN [K17F] | 1.56 |
| FICQATGDPRPKIVWNEKGKKVSN [K17E] | 1.34 |
| FICQATGDPRPKIVWNLKGKKVSN [K17L] | 1.78 |
| FICQATGDPRPKIVWNYKGKKVSN [K17Y] | 1.68 |
| FICQATGDPRPKIVWNIKGKKVSN [K17I] | 1.31 |
| FICQATGDPRPKIVWNNKGKKVSN [K17N] | 2.31 |
| FICQATGDPRPKIVWNMKGKKVSN [K17M] | 1.78 |
| FICQATGDPRPKIVWNSKGKKVSN [K17S] | 1.79 |
| FICQATGDPRPKIVWNTKGKKVSN [K17T] | 1.55 |
| FICQATGDPRPKIVWNAKGKKVSN [K17A] | 1.37 |
